The target of experiment [1] is epidermal growth factor receptor 2 (HER2) expressed on SKOV3 cells (human (endogenous in SKOV3)) (UniProt P04626). In words: split reporter (BiFC, NanoBiT); TEC screen: HER2-expressing SKOV3 cells incubated 1 hr at ambient temperature with clarified lysates of one β9 fusion and one β10 fusion (PBS + 1% BSA), washed 3 times, luminescence 30 min after Δ11S lysate (1:20) and Nano-Glo substrate; signal-to-background, average of three days.

The target of a further experiment is T1, β10 peptide (synthetic) (Oplophorus gracilirostris, Synthetic 11-mer. The sequence is only in Table S1, so the high-affinity NanoBiT peptide 86 (HiBiT-type) variant of strand 10 is assumed. Termini are not stated.).
T1 chain: VSGWRLFKKIS
As to the kind of experiment: luminescence complementation, 10 uM Nano-Glo substrate.

The source of these data is PMC5557857 (2017).

Consider “β9-G3 (DARPin G3 with β9 at the N-terminus) (designed binder)”, for which, in experiment [1], the TEC signal-to-background with 9.29-β10 was 122 and the TEC signal-to-background with 73JH-β10 is 219.

For “G3-β9 (DARPin G3 with β9 at the C-terminus) (designed binder)”, in experiment [1], the TEC signal-to-background with PertH-β10 is 122 and the TEC signal-to-background with β10-L73J amounted to 126.

As for “G3-β10 (DARPin G3 with β10 at the C-terminus) (designed binder)”, in experiment [1], the TEC signal-to-background with PertH-β9 worked out at 103, the TEC signal-to-background with β9-L73J was found to be 1360 and the TEC signal-to-background with β9-LPert was found to be 353.

As to “β9-9.29 (DARPin 9.29 with β9 at the N-terminus) (designed binder)”, in experiment [1], the TEC signal-to-background with PertH-β10 was determined as 671 and the TEC signal-to-background with β10-L73J was 173.

Consider “9.29-β10 (DARPin 9.29 with β10 at the C-terminus) (designed binder)”, for which, in experiment [1], the TEC signal-to-background with PertH-β9 amounted to 346, the TEC signal-to-background with β9-G3 was 122, the TEC signal-to-background with β9-L73J was 597 and the TEC signal-to-background with β9-LPert was determined as 265.

With “β10-G3 (DARPin G3 with β10 at the N-terminus) (designed binder)”, the TEC signal-to-background with β9-L73J in experiment [1] turned out to be 197.

B1: 11S (beta-strands 1-9 of NanoLuc, main fragment of NanoBiT) (domain or fragment)
chain: MVFTLEDFVGDWEQTAAYNLDQVLEQGGVSSLLQNLAVSVTPIQRIVRSGENALKIDIHVIIPYEGLSADQMAQIEEVFKVVYPVDDHHFKVILPYGTLVIDGVTPNMLNYFGRPYEGIAVFDGKKITVTGTLWNGNKIIDERLITPDGSMLFRVTINS
What is called Kd is the free concentration of one partner at which half of the binding sites on the other are occupied at equilibrium, for simple one-to-one binding. B1 had a Kd in the experiment with β10 peptide (synthetic) of 4 nM.
